Test results from paper PMC5725882.

Biological target: VIMP of canine pancreas microsomes (dog (endogenous in canine pancreas microsomes))
Experiment: co-IP; immunodepletion: canine pancreas microsomes solubilized in 1% deoxyBigCHAP, supernatant incubated three times with Protein A beads containing anti-VIMP antibodies; unbound fractions immunoblotted
Conditions: not given

Substance	percent of microsome-associated p97 lost by co-depletion with VIMP [%]
ER membrane-associated p97 of canine pancreas microsomes (natural protein)	< 90

Biological target: Np97 (N domain alone of wild-type p97) (UniProt P55072)
Sequence (P55072 whole entry): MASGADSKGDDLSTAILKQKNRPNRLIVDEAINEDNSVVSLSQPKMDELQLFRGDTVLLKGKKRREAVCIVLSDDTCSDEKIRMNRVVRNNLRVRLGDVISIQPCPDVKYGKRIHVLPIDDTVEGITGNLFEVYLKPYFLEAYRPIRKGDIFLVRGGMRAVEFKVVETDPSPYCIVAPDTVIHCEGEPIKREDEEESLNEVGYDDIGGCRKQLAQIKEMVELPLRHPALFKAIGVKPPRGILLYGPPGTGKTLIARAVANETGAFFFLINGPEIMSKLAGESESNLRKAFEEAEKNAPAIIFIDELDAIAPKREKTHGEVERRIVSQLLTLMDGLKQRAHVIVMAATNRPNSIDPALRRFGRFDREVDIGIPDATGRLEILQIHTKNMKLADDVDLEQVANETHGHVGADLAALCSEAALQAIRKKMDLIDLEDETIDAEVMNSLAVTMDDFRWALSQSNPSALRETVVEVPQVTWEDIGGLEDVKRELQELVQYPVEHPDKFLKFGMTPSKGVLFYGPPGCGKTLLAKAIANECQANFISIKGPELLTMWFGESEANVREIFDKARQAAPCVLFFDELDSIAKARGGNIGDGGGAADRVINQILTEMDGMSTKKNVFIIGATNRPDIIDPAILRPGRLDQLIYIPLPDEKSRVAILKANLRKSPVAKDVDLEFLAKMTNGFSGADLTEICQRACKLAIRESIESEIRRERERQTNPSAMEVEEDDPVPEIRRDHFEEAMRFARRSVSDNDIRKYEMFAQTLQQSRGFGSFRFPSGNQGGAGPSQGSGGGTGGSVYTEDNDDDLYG
Experiment: ITC; VIMPx titrated into p97; iTC200, 25 C; 50 mM Tris pH 8.0, 150 mM NaCl, 2 mM MgCl2, 5% glycerol; no nucleotide added; one-site model
Conditions: not given

Substance	Kd [µM]	stoichiometry N
VIMPx (VCP-interacting membrane protein, residues 49-122) (from UniProt Q9BQE4 49-122) (domain or fragment)	6.58	1.27

Biological target: full-length wild-type p97 (^FLp97^wt) (UniProt P55072)
Sequence (P55072 whole entry): as above
Experiment: GST pull-down
Conditions: 2 mM AMP-PNP; n=3; parent: est. 1.0; read off a plot

Substance	ratio to parent
GST-tagged VIMP-N10 L82A	0.14
GST-tagged VIMP-N10 M89A	0.24
GST-tagged VIMP-N10 Q79A	0.87
GST-tagged VIMP-N10 R86A	0.07
GST-tagged VIMP-N10 V97A	0.04

Now from value to substance:

ratio to parent	Substance
0.8	GST-tagged VIMP-N10 K77A
0.14	GST-tagged VIMP-N10 K88A
0.17	GST-tagged VIMP-N10 L93A
0.24	GST-tagged VIMP-N10 R78A
